Measured values from article PMC2148171 (The Journal of Cell Biology, 1998).
Like-named read-outs stand apart in the source and are kept apart here.

B1: baculovirus produced 6x histidine-tagged recombinant CHO cell MCAK (mitotic centromere-associated kinesin) (natural protein, Chinese hamster (CHO cell MCAK), UniProt P70096 1-718, looked up)
chain: MESLPARLFPGLSIKIQRSNGLIHSANISTVNVEKSCVSVEWIEGGNTKGKEIDFDDVAAINPELLQLLPLHPKDNLPLQENVTVPKQKRRSVNSKIPAPKEGLRSRSTRMSTVPEVRIATQENEMEVELPVATNSRKQFSVATGLPRPSCPAMTELPLSMVSEEAEEQVHPTRSTSSANPARRKSCIVKEMEKMKNKREEKRAQNSEIRIKRAQEYDSSFPNWEFARMIKEFRVTIECHPLTLTDPTEEHRICVCVRKRPLNKQELAKKEIDVISVPSKCLLFVHEPKLKVDLTKYLENQAFCFDFAFDETASNEVVYRFTARPLVQTIFEGGKATCFAYGQTGSGKTHTMGGDLSGKSQNTSKGIYAMASRDVFLLKSQPRYRNLNLEVYVTFFEIYNGKVFDLLNKKAKLRVLEDSKQQVQVVGLQEYLVNCADDVIKMLNMGSACRTSGQTFANSNSSRSHACFQILLRAKGRLHGKFSLVDLAGNERGADTSSADRQTRMEGAEINKSLLALKECIRALGQNKAHTPFRESKLTQVLRDSFIGENSRTCMIAMISPGISSCEYTLNTLRYADRVKELSPHSGLSGEQPIQMETEEMEASSNGTSLAVNFKEEEELSSQMSSFNEAMSQIRELEERAMEELREIIQQGPGWLELSEMTDQPDYDLETFVNKAESALTQQTKHFSALREVIKALRVAMQLEEQASKQMNSKKRHQ
B2: MCAK (mitotic centromere-associated kinesin) in CHO cells (natural protein, Chinese hamster (endogenous in CHO-K1), UniProt P70096 1-718, looked up)
chain: B1 chain

How the values were obtained:
[1] = molecular target: the molecule itself; experiment: SEC + other: sucrose density gradient centrifugation
[2] = molecular target: the molecule itself; experiment: as above; remark: listed apart in the source

| Protein | stoichiometry N [1] | stoichiometry N [2] |
| --- | --- | --- |
| B1 | 2 | – |
| B2 | – | 2 |
